The values that follow come from patent US20250049970A1, “DLL3 TARGETING PEPTIDES AND CONSTRUCTS THEREOF” (MARIANA ONCOLOGY INC., priority 2023, published 2025).

As usually defined, the Kd is the concentration at which binding is half-saturated. As a reminder, the EC50 is the concentration giving half of the maximal effect.

The target in one test is T1, DLL3 (Homo sapiens, UniProt Q9NYJ7).
T1 sequence (Q9NYJ7 27-618): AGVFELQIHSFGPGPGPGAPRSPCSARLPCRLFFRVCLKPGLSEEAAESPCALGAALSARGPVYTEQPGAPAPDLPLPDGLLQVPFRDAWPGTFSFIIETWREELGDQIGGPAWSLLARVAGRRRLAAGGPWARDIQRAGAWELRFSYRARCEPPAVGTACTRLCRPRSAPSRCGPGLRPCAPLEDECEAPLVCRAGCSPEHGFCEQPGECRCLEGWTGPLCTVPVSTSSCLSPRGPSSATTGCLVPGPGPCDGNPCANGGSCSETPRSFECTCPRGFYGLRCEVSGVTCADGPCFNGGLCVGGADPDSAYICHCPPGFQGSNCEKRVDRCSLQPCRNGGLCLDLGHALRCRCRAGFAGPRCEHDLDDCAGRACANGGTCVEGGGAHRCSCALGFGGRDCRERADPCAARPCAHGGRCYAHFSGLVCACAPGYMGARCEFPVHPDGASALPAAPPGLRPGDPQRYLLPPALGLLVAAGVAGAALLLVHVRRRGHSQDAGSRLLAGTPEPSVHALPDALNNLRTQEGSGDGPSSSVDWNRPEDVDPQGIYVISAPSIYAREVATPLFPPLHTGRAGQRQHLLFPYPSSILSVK
The test can be described thus: SPR binding affinity of cyclic peptides (SEQ ID NOs), SA sensor chip, Biacore S200. The conditions noted are these: 25° C., 1:1 binding model. The procedure:
The binding affinity and binding kinetic parameters at 25° C. were determined using Biacore S200 instrument. Target ligand was immobilized on a SA sensor chip via streptavidin capture. A reference surface was set up for nonspecific binding and refractive index changes. For analysis of the kinetics of interactions, varying concentrations of peptides were injected at a flow rate of 50 μL/minute using running buffer containing 20 mM phosphate buffer with 2.7 mM KCl, 137 mM NaCl and 0.05% Surfactant P20. Sensorgram curves were fitted with 1:1 binding model, and affinity and kinetic parameters were obtained using either Biacore S200 evaluation software 1.1.1 or Biacore Insight evaluation 4.0.
For orientation: SPR reads the build-up and loss of mass on a sensor chip optically.

A further test deals with T2, DLL3 on CT26.DLL3 cells (Homo sapiens (Human), UniProt Q9NYJ7 27-618).
T2 construct: CT26.DLL3 are engineered cells to express DLL3
T2 sequence: T1 sequence (Q9NYJ7 27-618)
The test can be described thus: [177Lu]Lu-labelled peptide on CT26.DLL3 cells, 1 h 37 C, gamma counter; A = %<=25. The procedure: (§1) Adherent cell studies: The cells were cultured in appropriate culture media (20 mL) in tissue culture treated T150 flasks at 37° C. and 5% C02. Adherent cells were detached (60-70% confluent) using 5 mL Versene at 37° C. for 3 minutes. After confirming the viability using countess and count of detached cells using Trypan blue, the cells were centrifuged at 4° C. for 5 minutes (1,000 rpm). The cell pellet obtained was washed once with PBS and resuspended in 1% PBSA to obtain the desired cell concentration (5-25 million cells/mL).
(§2) Total uptake: Cells were incubated with 300 μL (0.8 μCi) of the incubation buffer (containing radiolabeled peptide [¹⁷⁷Lu]Lu-test peptide) for 1 hour at 37° C. (Table 10). Post incubation, the cells were pelleted and washed 2 times using cold PBS+1% BSA. The supernatant and washes were combined and counted together as “unbound fraction” in a gamma counter. The cells were then resuspended in 300 μL of 1% PBS+1% BSA and counted in the gamma counter as “bound fraction”.

Test [1] addresses T3, DLL3 on SHP-77 cells (human, UniProt Q9NYJ7 27-618).
T3 construct: SHP-77 cells are human-derived, non-engineered SCLC cells
T3 sequence: T1 sequence (Q9NYJ7 27-618)
The test can be described thus: [177Lu]Lu-labelled peptide on SHP-77 cells, 1 h 37 C, gamma counter; A = %<=25. The procedure:
as §1, §2

The target of test [2] is DLL3 on CT26.DLL3 cells (Homo sapiens (Human)) (UniProt Q9NYJ7). The test can be described thus: [177Lu]Lu-labelled peptide on CT26.DLL3 cells, 1 h 37 C, gamma counter; A = %<=25.
Test [3] has as its target T3, DLL3 on SHP-77 cells. The test can be described thus: [177Lu]Lu-labelled peptide on SHP-77 cells, 1 h 37 C, gamma counter; B = 25<%<=50.
Test [4] deals with DLL3 on CT26.DLL3 cells (Homo sapiens (Human)) (UniProt Q9NYJ7). The test can be described thus: [177Lu]Lu-labelled peptide on CT26.DLL3 cells, 1 h 37 C, gamma counter; B = 25<%<=50.
The target in test [5] is Recombinant human DLL3 aa27-215 protein (human) (UniProt Q9NYJ7). The test can be described thus: ELISA: anti-DOTA antibody coated on the plate captures the DOTA-containing peptide (titrated 100 nM to 1.69 pM); 2 ug/mL DLL3 aa27-215 (His-tagged) added; detected with anti-His-HRP, OD450; EC50 fitted in GraphPad. (In general: ELISA stands for enzyme-linked immunosorbent assay.)

In test [6] the target is T3, DLL3 on SHP-77 cells. The test can be described thus: [177Lu]Lu-labelled peptide on SHP-77 cells, 1 h 37 C, gamma counter; C = %>50.

Several values for one entry are separate records, joined by “and”; a condition that tells them apart may be missing. Equal entries are not always repeated. *1 amine or outer side, *2 acyl side, *3 side chain or, on linkers, in order; H or OH if unused. Where a SMILES comes first, the peptide text is derived from it. Bridges are numbered along the chain shown (N, C = ends). [ ]: non-standard residue; d: D form. The star is where a group is joined. Ala(piperidin-4-yl) = O=C([C@H](CC1CCN([*:3])CC1)N[*:1])[*:2]; DOTA = O=C(O)CN1CCN(CC(=O)O)CCN(CC(=O)*)CCN(CC(=O)O)CC1; 2Nal = N[C@@H](Cc1ccc2ccccc2c1)C(=O)O; NMetBuAla = CN[C@@H](CC(C)(C)C)C(=O)O; Gly(4-THP) = N[C@H](C(=O)O)C1CCOCC1; Ile(3-Me) = CCC(C)(C)[C@H](N)C(=O)O; aIle = CC[C@@H](C)[C@H](N)C(=O)O; tBuAla = CC(C)(C)C[C@H](N)C(=O)O; Cha = N[C@@H](CC1CCCCC1)C(=O)O; Chg = N[C@H](C(=O)O)C1CCCCC1; NMeNle = CCCC[C@H](NC)C(=O)O; αMeP = C[C@@]1(C(=O)O)CCCN1 Where only a bound is given, the exact number is not on record here.

Consider `CSCC[C@H](NC(C)=O)C(=O)N[C@@H](Cc1c[nH]c2ccccc12)C(=O)N[C@@H](CCSC)C(=O)N[C@@H](CC(C)C)C(=O)N[C@H]1CSSC[C@@H](C(=O)N[C@@H](Cc2c[nH]c3ccccc23)C(=O)N2CCC[C@H]2C(N)=O)NC(=O)[C@H](CC(=O)O)NC(=O)[C@H](CCCCN)NC(=O)[C@H](CC(=O)O)NC(=O)[C@H](Cc2c[nH]c3ccccc23)NC(=O)[C@H](CC(=O)O)NC1=O` [compound 77] (Ac-MWMLCDWDKDCWP-NH2; disulfide 5-11), for which, on DLL3, the affinity, expressed as Kd, was 150 nM. This counts as sub-micromolar. On the same count and under the same terms, under `CC[C@H](C)[C@H](NC(=O)[C@@H](NC(=O)[C@H](Cc1c[nH]c2ccccc12)NC(=O)[C@H](CCSC)NC(C)=O)[C@@H](C)O)C(=O)N[C@H]1CSSC[C@@H](C(=O)N[C@@H](Cc2c[nH]c3ccccc23)C(=O)N2CCC[C@H]2C(N)=O)NC(=O)[C@H](CC(=O)O)NC(=O)[C@H](Cc2cnc[nH]2)NC(=O)[C@H](Cc2c[nH]c3ccccc23)NC(=O)[C@H](CC(N)=O)NC(=O)[C@@H](C)NC1=O` [compound 82] (Ac-MWTIC[dA]NWHDCWP-NH2; disulfide 5-11) stands 47 nM.

B1: Cpd No. 322 (peptide)
peptide: Ac-WT[aIle]CNN[2Nal]K(DOTA)DCWP-NH2
modifications: disulfide 4-10
SMILES: CC[C@@H](C)[C@H](NC(=O)[C@@H](NC(=O)[C@H](Cc1c[nH]c2ccccc12)NC(C)=O)[C@@H](C)O)C(=O)N[C@H]1CSSC[C@@H](C(=O)N[C@@H](Cc2c[nH]c3ccccc23)C(=O)N2CCC[C@H]2C(N)=O)NC(=O)[C@H](CC(=O)O)NC(=O)[C@H](CCCCNC(=O)CN2CCN(CC(=O)O)CCN(CC(=O)O)CCN(CC(=O)O)CC2)NC(=O)[C@H](Cc2ccc3ccccc3c2)NC(=O)[C@H](CC(N)=O)NC(=O)[C@H](CC(N)=O)NC1=O
Regarding B1, the “% Binding” value in the test with DLL3 on CT26.DLL3 cells and in the test with DLL3 on SHP-77 cells [1] was at most 25% in each case. Turning to Ac-WT[Chg]C[Ala(piperidin-4-yl)]N[2Nal]K(DOTA)DCWP-NH2 (disulfide 4-10) [Cpd No. 324], the % Binding is under 25% in test [2]; > 25% and < 50% with DLL3 on SHP-77 cells [3]. For the molecule Ac-WT[tBuAla]C[Ala(piperidin-4-yl)]N[2Nal]K(DOTA)DCWP-NH2 (bridge 4-10; not fully specified (bridges)) [Cpd No. 94], in test [4], the % Binding was > 25% and < 50%. In addition, in test [5], the EC50 amounted to 2.19 nM. In turn, Ac-WT[NMetBuAla]C[Ala(piperidin-4-yl)]N[2Nal]K(DOTA)DCW[αMeP]-NH2 (bridge 4-10; not fully specified (bridges)) [Cpd No. 236] registered a % Binding in the test with DLL3 on SHP-77 cells [6] of over 50%. In test [5], the EC50 is 0.341 nM. Consider Ac-WT[NMeNle]CNN[2Nal]K(DOTA)DCWP-NH2 (disulfide 4-10) [Cpd No. 320], for which the “% Binding” value with DLL3 on CT26.DLL3 cells and with DLL3 on SHP-77 cells [1] was at most 25% throughout. For Ac-WT[tBuAla]C[Ala(piperidin-4-yl)]N[2Nal]K(DOTA)DCW[αMeP]-NH2 (bridge 4-10; not fully specified (bridges)) [Cpd No. 437], in test [5], the EC50 came out at 2.86 nM.

B2: Cpd No. 314 (peptide)
peptide: Ac-WT[tBuAla]C[Ala(piperidin-4-yl)]N[2Nal]K(DOTA)DCWP-NH2
modifications: disulfide 4-10
SMILES: CC(=O)N[C@@H](Cc1c[nH]c2ccccc12)C(=O)N[C@H](C(=O)N[C@@H](CC(C)(C)C)C(=O)N[C@H]1CSSC[C@@H](C(=O)N[C@@H](Cc2c[nH]c3ccccc23)C(=O)N2CCC[C@H]2C(N)=O)NC(=O)[C@H](CC(=O)O)NC(=O)[C@H](CCCCNC(=O)CN2CCN(CC(=O)O)CCN(CC(=O)O)CCN(CC(=O)O)CC2)NC(=O)[C@H](Cc2ccc3ccccc3c2)NC(=O)[C@H](CC(N)=O)NC(=O)[C@H](CC2CCNCC2)NC1=O)[C@@H](C)O
Consider B2, for which the % Binding was > 25% and < 50% in test [4]; > 25% and < 50% with DLL3 on SHP-77 cells [3].

Regarding Ac-WT[Ile(3-Me)]C[Ala(piperidin-4-yl)]N[2Nal]K(DOTA)DCWP-NH2 (disulfide 4-10) [Cpd No. 302], the % Binding in test [2] was under 25%; with DLL3 on SHP-77 cells [3], > 25% and < 50%.

B3: Cpd No. 249 (peptide)
peptide: Ac-WTICK(DOTA)N[2Nal]HDCWP-NH2
modifications: disulfide 4-10
SMILES: CC[C@H](C)[C@H](NC(=O)[C@@H](NC(=O)[C@H](Cc1c[nH]c2ccccc12)NC(C)=O)[C@@H](C)O)C(=O)N[C@H]1CSSC[C@@H](C(=O)N[C@@H](Cc2c[nH]c3ccccc23)C(=O)N2CCC[C@H]2C(N)=O)NC(=O)[C@H](CC(=O)O)NC(=O)[C@H](Cc2c[nH]cn2)NC(=O)[C@H](Cc2ccc3ccccc3c2)NC(=O)[C@H](CC(N)=O)NC(=O)[C@H](CCCCNC(=O)CN2CCN(CC(=O)O)CCN(CC(=O)O)CCN(CC(=O)O)CC2)NC1=O
notes: also called compound 249
For the molecule B3, the “% Binding” value in the test with DLL3 on CT26.DLL3 cells and with DLL3 on SHP-77 cells [1] was at most 25% each time.

B4: Cpd No. 317 (peptide)
peptide: Ac-WT[Gly(4-THP)]CNN[2Nal]K(DOTA)DCWP-NH2
modifications: disulfide 4-10
SMILES: CC(=O)N[C@@H](Cc1c[nH]c2ccccc12)C(=O)N[C@H](C(=O)N[C@H](C(=O)N[C@H]1CSSC[C@@H](C(=O)N[C@@H](Cc2c[nH]c3ccccc23)C(=O)N2CCC[C@H]2C(N)=O)NC(=O)[C@H](CC(=O)O)NC(=O)[C@H](CCCCNC(=O)CN2CCN(CC(=O)O)CCN(CC(=O)O)CCN(CC(=O)O)CC2)NC(=O)[C@H](Cc2ccc3ccccc3c2)NC(=O)[C@H](CC(N)=O)NC(=O)[C@H](CC(N)=O)NC1=O)C1CCOCC1)[C@@H](C)O
Take B4: the “% Binding” value with DLL3 on CT26.DLL3 cells and with DLL3 on SHP-77 cells [1] was at most 25% throughout.

B5: Cpd No. 323 (peptide)
peptide: Ac-WT[Cha]CNN[2Nal]K(DOTA)DCWP-NH2
modifications: disulfide 4-10
SMILES: CC(=O)N[C@@H](Cc1c[nH]c2ccccc12)C(=O)N[C@H](C(=O)N[C@@H](CC1CCCCC1)C(=O)N[C@H]1CSSC[C@@H](C(=O)N[C@@H](Cc2c[nH]c3ccccc23)C(=O)N2CCC[C@H]2C(N)=O)NC(=O)[C@H](CC(=O)O)NC(=O)[C@H](CCCCNC(=O)CN2CCN(CC(=O)O)CCN(CC(=O)O)CCN(CC(=O)O)CC2)NC(=O)[C@H](Cc2ccc3ccccc3c2)NC(=O)[C@H](CC(N)=O)NC(=O)[C@H](CC(N)=O)NC1=O)[C@@H](C)O
Regarding B5, the “% Binding” value with DLL3 on CT26.DLL3 cells and with DLL3 on SHP-77 cells [1] was at most 25% each time.
